Among the data in patent US20250179160A1 (OMEROS, published 2025) are binding result and Kd values, retold here.

Bounds are passed on as bounds.

For assay [1], the target named is T1, recombinant human Pro-Factor D (human, UniProt P00746 20-253).
T1 construct: also used for the endogenous pro-Factor D detected in 3MC patient serum; also called pro CFD; hPro-CFD
Briefly: capture ELISA: recombinant Factor D captured by plate-bound goat polyclonal AF1824; hybridoma supernatant diluted two-fold; OD450.
Experimental: Hybridoma supernatants were first screened for binding to immobilized recombinant human mature Factor D-His. […] ELISA plates were coated with polyclonal anti-human factor D antibody AF1824 (R&D Systems). Hybridoma supernatants were diluted two-fold in PBS, 0.05% Tween 20 (PBST). Supernatant from NS-1 myeloma cell line (NS-1 sup) was included as a matrix control to determine the level of assay background.

For assay [2], the target named is T2, recombinant human mature Factor D (human, UniProt P00746 26-253).
T2 construct: also called mature CFD; hCFD
Put plainly: BLI (Octet ForteBio), 20 nM human IgG4 antibody on anti-human sensors, antigen 111 nM.
Experimental: Affinities of candidate antibodies to human mature-Factor-D versus human pro-Factor D were determined as follows.
Association and dissociation constants were determined by Octet Fortebio.

The target in assay [3] is T1, recombinant human Pro-Factor D. Put plainly: sandwich ELISA: Factor D titrated (ug/ml Df) on plate-bound goat polyclonal AF1824; purified recombinant human IgG4 antibody as detection antibody; OD450.
Text: An HRP-tagged anti-mouse secondary antibody followed by TMB substrate was used to develop the assay.
The target in assay [4] is T2, recombinant human mature Factor D. Briefly: ELISA: antibody titrated 3-fold from 3 ug/ml on plate coated with 1 ug/ml recombinant human mature Factor D; HRP anti-mouse, rat or human secondary; OD450.
For assay [5] the target is unchanged. Briefly: capture ELISA: recombinant Factor D captured by plate-bound goat polyclonal AF1824; hybridoma supernatant diluted two-fold; HRP goat anti-mouse IgG Fc; OD450.
Experimental: The specificity of anti-human pro-CFD hybridomas were further analyzed as follows. […] ELISA plates were coated with polyclonal anti-human factor D antibody AF1824 (R&D Systems). Hybridoma supernatants were diluted two-fold in PBS, 0.05% Tween 20 (PBST). […] Hybridoma supernatants and control samples were allowed to bind to captured pro or mature Factor D for one hour at room temperature. After washing three times with PBST, 100 μL/well of HRP-goat anti-mouse IgG Fc gamma secondary antibody (Jackson ImmunoResearch) diluted in PBST was added and incubated for 1 hour at room temperature. After washing three times with PBST, TMB substrate (ThermoFisher), 100 μL/well, was added. After 4 minutes the reaction was stopped with 50 μL/well of 1N H2SO₄, then read at 450 nm on a Biotek™ ELISA plate reader.

B1: 6G6, hybridoma supernatant (antibody, V domains shown)
VH: QITLKESGPGILQSSQTLSLTCSFSGISLTTSGMGVSWIRQPSGKGLEWLAHIYWDDEKHYHPSLKSRLTISKDASRNQVFFRILSVDTADTATYYCALRYYGYRSFMDYWGQGTSVTVSS
VL: DVLMTQSPLSLPVSLGDQASIFCRSNQSIVHSNGNTYFEWYLQKPGQSPKLLIYKVSNRFSGVPDRFSGSGSGTDFTLRISRVEAEDLGVYYCFQGSHVPPTFGGGTKLEIKR
notes: Mouse hybridoma antibody
Regarding B1, the binding result in assay [1] is given as “no binding”.

B2: 49G3, hybridoma supernatant (antibody, V domains shown)
VH: QVTLKESGPGILQSSQTLSLTCSFSGISLSSSGMGVSWIRQPSGKGLEWLAHIYWDDEKHYNPSLKSRLTISKDASRNQIFLKIISVDTADTATYYCALRYYGYNYVMHYWGQGTSVTVSS
VL: DVLMTQTPLSLPVSLGDQASISCRSSQSILHSNGNTYFEWYLQKPGQSPKLLIYKVSNRFSGVPDRFSGSGSGTDFTLKISRVEAEDLGVYYCFQGSHVPPTFGGGTKLEIKR
notes: Mouse hybridoma antibody
As to B2, the binding result in assay [1] is “no binding”.

B3: 6G6, purified recombinant, human IgG4 (antibody, V domains shown)
VH: QITLKESGPGILQSSQTLSLTCSFSGISLTTSGMGVSWIRQPSGKGLEWLAHIYWDDEKHYHPSLKSRLTISKDASRNQVFFRILSVDTADTATYYCALRYYGYRSFMDYWGQGTSVTVSS
VL: DVLMTQSPLSLPVSLGDQASIFCRSNQSIVHSNGNTYFEWYLQKPGQSPKLLIYKVSNRFSGVPDRFSGSGSGTDFTLRISRVEAEDLGVYYCFQGSHVPPTFGGGTKLEIKR
notes: Mouse variable regions on human IgG4 (S228P) and human kappa constant regions
In the case of B3, in assay [2], the Kd amounted to 14.3 nM. Besides, in assay [3], the binding result is “no binding”.

B4: 27B3, purified recombinant, human IgG4 (antibody, V domains shown)
VH: QVTLKESGPGILQSSQTLSLTCSFSGISLNISGMGVSWIRQPSGKGLEWLAHIYWDDEKHYNPSLKRRLTISKDASRNQVFFRISSVDSADTATYYCALRYYGYGSIMDYWGHGTSVTVSS
VL: DVLMTQTPLSLPVSLGDQASISCRSSQSIVHSNGNTYFEWYLQKPGQSPKLLIYKVSNRFSGVPDRFSGSGSGTDFTLKISRVEAEDLGVYYCFQGSHVPPTFGGGTKLEIKR
notes: as for B3
Take B4: in assay [2], the Kd came to 24.1 nM. The binding result in assay [3] is given as “no binding”.

B5: 49G3, purified recombinant, human IgG4 (antibody, V domains shown)
VH: QVTLKESGPGILQSSQTLSLTCSFSGISLSSSGMGVSWIRQPSGKGLEWLAHIYWDDEKHYNPSLKSRLTISKDASRNQIFLKIISVDTADTATYYCALRYYGYNYVMHYWGQGTSVTVSS
VL: DVLMTQTPLSLPVSLGDQASISCRSSQSILHSNGNTYFEWYLQKPGQSPKLLIYKVSNRFSGVPDRFSGSGSGTDFTLKISRVEAEDLGVYYCFQGSHVPPTFGGGTKLEIKR
notes: as for B3
As to B5, the equilibrium dissociation constant (Kd) in assay [2] came to 2.3 nM. For the same molecule, the binding result in assay [3] is “no binding”.

B6: 10G1, purified recombinant, human IgG4 (antibody, V domains shown)
VH: QVTLKESGPGILQSSQTLSLTCSFSGVSLSSSGMGVSWIRQPSGKGLEWLAHIYWDDEKHYNPSLKSRLTISKGASRNQVFLKIISVDTADTATYYCALRYYGYNSIMHYWGQGASVTVSS
VL: DVLMTQTPLSLPVSLGDQASISCRSSESIVHSNGNTYLEWYLQKPGQSPKLLIYKVYNRFSGVPDRFSGSGSGTDFTLKISRVEAEDLGVYYCFQGSHVPPTFGGGTKLEIKR
notes: as for B3
Take B6: the dissociation constant (Kd) in assay [2] turned out to be 0.731 nM. For the same molecule, the binding result in assay [3] was “no binding”.

B7: 58F5, purified recombinant, human IgG4 (antibody, V domains shown)
VH: QVTLKESGPGILQSSQTLSLTCSFSGISLNTSIMGVSWIRQPSGKGLEWLAHIYWDDEKHYNPSLKSRLTISKDASRNQVFLKIISVDTADTATYYCALRYYGYNYVMHYWGQGTSVTVSS
VL: DVLMTQTPLSLPVSLGDQASISCRSSQSIVHSNGNTYLEWYLQKPGQSPKLLIYKVSNRFSGVPDRFSGSGSGTDFTLKISRVEADDLGVYYCFQGSHVPPTFGGGTKLEIKR
notes: as for B3
Take B7: in assay [2], the Kd was under 0.001 nM. Moreover, the binding result in assay [3] is “no binding”.

B8: 58F5, hybridoma supernatant (antibody, V domains shown)
VH: QVTLKESGPGILQSSQTLSLTCSFSGISLNTSIMGVSWIRQPSGKGLEWLAHIYWDDEKHYNPSLKSRLTISKDASRNQVFLKIISVDTADTATYYCALRYYGYNYVMHYWGQGTSVTVSS
VL: DVLMTQTPLSLPVSLGDQASISCRSSQSIVHSNGNTYLEWYLQKPGQSPKLLIYKVSNRFSGVPDRFSGSGSGTDFTLKISRVEADDLGVYYCFQGSHVPPTFGGGTKLEIKR
notes: Mouse hybridoma antibody; also called 58GF5
On to B8, for which the binding result in assay [1] was “no binding”.

B9: 10G1, hybridoma supernatant (antibody, V domains shown)
VH: QVTLKESGPGILQSSQTLSLTCSFSGVSLSSSGMGVSWIRQPSGKGLEWLAHIYWDDEKHYNPSLKSRLTISKGASRNQVFLKIISVDTADTATYYCALRYYGYNSIMHYWGQGASVTVSS
VL: DVLMTQTPLSLPVSLGDQASISCRSSESIVHSNGNTYLEWYLQKPGQSPKLLIYKVYNRFSGVPDRFSGSGSGTDFTLKISRVEAEDLGVYYCFQGSHVPPTFGGGTKLEIKR
notes: Mouse hybridoma antibody
For the molecule B9, in assay [1], the binding result is “no binding”.

B10: 14A11, purified recombinant, human IgG4 (antibody)
heavy: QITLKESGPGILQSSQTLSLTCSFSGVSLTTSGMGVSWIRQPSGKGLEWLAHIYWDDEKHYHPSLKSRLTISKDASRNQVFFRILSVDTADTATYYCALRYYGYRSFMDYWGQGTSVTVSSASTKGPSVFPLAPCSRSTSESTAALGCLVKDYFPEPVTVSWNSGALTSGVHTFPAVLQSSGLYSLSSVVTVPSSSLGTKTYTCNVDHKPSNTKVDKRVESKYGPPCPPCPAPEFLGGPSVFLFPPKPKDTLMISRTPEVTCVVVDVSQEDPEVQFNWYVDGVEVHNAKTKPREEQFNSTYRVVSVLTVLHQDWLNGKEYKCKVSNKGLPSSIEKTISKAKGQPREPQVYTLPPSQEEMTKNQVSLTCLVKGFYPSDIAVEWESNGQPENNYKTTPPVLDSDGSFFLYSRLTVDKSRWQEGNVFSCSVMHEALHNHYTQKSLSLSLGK
light: DVLMTQSPLSLPVSLGDQASIFCRSNQSIVHSNGNTYFEWYLQKPGQSPKLLIYKVSNRFSGVPDRFSGSGSGTDFTLRISRVEAEDLGIYYCFQGSHVPPTFGGGTKLEIKRTVAAPSVFIFPPSDEQLKSGTASVVCLLNNFYPREAKVQWKVDNALQSGNSQESVTEQDSKDSTYSLSSTLTLSKADYEKHKVYACEVTHQGLSSPVTKSFNRGEC
notes: as for B3
As to B10, in assay [2], the Kd was 9.77 nM. Further, in assay [3], the binding result was “no binding”.

B11: 1F9, purified recombinant, human IgG4 (antibody, V domains shown)
VH: EVKLEESGGGLVQPGGSMKLSCVASGFTFGSYWMSWVRQSPEKGLEWVAEIRLKSDNYAAHYAESVKGKFTISRDDSKSRLYLQMNSLRGEDTGIYYCTNAWFASWGQGTLVTVSA
VL: DIVMSQSPSSLTVSVGEKVTMSCMSSQSLLYSKDQKNYLAWYQQKPGQSPTLLIYWASTRESGVPDRFTGSGSGTDFTLTISSVKAEDLAVYYCLQYYTYPYTFGGGTKLEIKR
notes: as for B3
Consider B11, for which the binding result in assay [4] is reported as “no binding (tested: 3 ug/ml)”.

B12: 20A1, hybridoma supernatant (antibody, V domains shown)
VH: EVKLEESGGGLVQPGGSMKLSCIASGFTFSTYWMSWVRQSPEKGLEWVAEIRLKSENYATYYAESVKGKFIISRDDSKSRLYLQMNSLRAEDTGIYYCTNAWFANWGQGTLVTVSA
VL: DIVMSQSPSSLVVSVGEKVTMSCKSSQNLLYSRDQKNYLAWYQQKPGQSPNLLIYWASTRESGVPDRFTGSGSGTDFSLTISSVKAEDLAVYYCLQYYSYPYTFGGGTKLEMKR
notes: Mouse hybridoma antibody
In the case of B12, the binding result in assay [5] is given as “no binding”.

B13: 18F5, hybridoma supernatant (antibody, V domains shown)
VH: EVKLEESGGGLVQPGGSMKLSCVASGFTFGNYWMSWVRQSPEKGLEWVAEIRLKSDNYATHYAESVKGKFTISRDDSKSRLYLQMNSLRGEDTGLYYCTNAWFASWGQGTLVTVSA
VL: DIVMSQSPSSLAVSVGEKVTMSCMSSQSLLYSKDQKNYLAWYQQKPGQSPKLLIYWASTRESGVPDRFTGSGSGTDFTLTISSVKAEDLAVYYCLQYYTYPYTFGGGTKLEIKR
notes: Mouse hybridoma antibody
Consider B13, for which, in assay [5], the binding result is “no binding”.

B14: 20A1, purified recombinant, human IgG4 (antibody, V domains shown)
VH: EVKLEESGGGLVQPGGSMKLSCIASGFTFSTYWMSWVRQSPEKGLEWVAEIRLKSENYATYYAESVKGKFIISRDDSKSRLYLQMNSLRAEDTGIYYCTNAWFANWGQGTLVTVSA
VL: DIVMSQSPSSLVVSVGEKVTMSCKSSQNLLYSRDQKNYLAWYQQKPGQSPNLLIYWASTRESGVPDRFTGSGSGTDFSLTISSVKAEDLAVYYCLQYYSYPYTFGGGTKLEMKR
notes: as for B3
Consider B14, for which the binding result in assay [4] is “no binding (tested: 3 ug/ml)”.

B15: 1F9, hybridoma supernatant (antibody, V domains shown)
VH: EVKLEESGGGLVQPGGSMKLSCVASGFTFGSYWMSWVRQSPEKGLEWVAEIRLKSDNYAAHYAESVKGKFTISRDDSKSRLYLQMNSLRGEDTGIYYCTNAWFASWGQGTLVTVSA
VL: DIVMSQSPSSLTVSVGEKVTMSCMSSQSLLYSKDQKNYLAWYQQKPGQSPTLLIYWASTRESGVPDRFTGSGSGTDFTLTISSVKAEDLAVYYCLQYYTYPYTFGGGTKLEIKR
notes: Mouse hybridoma antibody
On to B15, for which, in assay [5], the binding result is listed as “no binding”.

B16: 2A4, hybridoma supernatant (antibody, V domains shown)
VH: EVKLEESGGGLVQPGGSMKLSCVASGFTFSTYWMSWVRQSPEKGLEWVAEIRLKSDNYATHYTESVKGKFTISRDDSKSRLYLQMNSLRVEDTGIYYCTNAWFAYWGQGTLVTVSA
VL: DIVMSQSPSSLAVSVGEKFTMSCKSSQSLLYSRDQKNYLAWYQQQPGQSPKLLIYWASTRESGVPDRFTGSGSGTDFTLTISSVKTEDLAVYYCLQYYSYPYTFGGGTKLEIKR
notes: Mouse hybridoma antibody
Consider B16, for which the binding result in assay [5] is on record as “no binding”.

B17: 13A10, hybridoma supernatant (antibody, V domains shown)
VH: DVQLQESGPGLVKPSQSLSLTCTVTGYSITSDYAWNWIRQFPGNKLEWMGYISYIGGIGYNPSLKSRISITRDTSKNQFFLHLNSVTTGDTATYYCARNGAMDFWGQGISVTVSS
VL: DIVLTQSPASLAVSLGQRATISCKASQSVDYDGDSYMNWYQQKPGQPPKLLIYDASNLESGIPARFSGSGSGTDFTLNIHPVEEEDAATYYCQQSNEAPWTFGGGTKLEIKR
notes: Mouse hybridoma antibody
Turning to B17, the binding result in assay [5] is reported as “no binding”.

B18: 21H1, hybridoma supernatant (antibody, V domains shown)
VH: DVQLQESGPGLVKPSQSLSLTCTVTGYSITSDYAWNWIRQFPGNKLEWMGYISYSGSTGYSPSLKSRISITRDTSKNQFFLHLNSVTTGDTATYYCARNGAMDYWGQGISVTVSS
VL: DIVLTQSPASLAVSLGQRATISCKASQSVDYDGDSYMNWYQQKPGQPPKLLIYDASTLESGIPARFSGSGSGTDFTLNIHPVEEEDAATYYCQQNYEAPWTFGGGTKLEIKR
notes: Mouse hybridoma antibody
B18: the binding result in assay [5] is listed as “no binding”.
